According to patent US20220324964A1 (GENERAL HOSPITAL, published 2022):
One block for each binder: values may come before it.

What was measured:
[1] = molecular target: T1, soluble TACI protein, fluorescently labeled (UniProt O14836 1-165, limits assumed, fluorescent label (not specified)); experiment: flow cytometry, fluorescent soluble TACI titrated 0.01 to 1000 nM on CAR T cells, MFI relative to untransduced cells, N=3
T1 construct: Labeled soluble protein used to stain CAR T cells in flow cytometry; also called sTACI; fluorescent TACI
T1 sequence (looked up): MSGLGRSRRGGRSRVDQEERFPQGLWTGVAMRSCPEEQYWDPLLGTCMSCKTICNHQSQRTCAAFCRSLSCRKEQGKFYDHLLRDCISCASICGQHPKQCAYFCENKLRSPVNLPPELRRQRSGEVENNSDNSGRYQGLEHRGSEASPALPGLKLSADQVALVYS
Experimental: (§1) FIGS. 25A-25B show measurements of binding of soluble TACI protein to untransduced T cells, and to T cells expressing anti-TACI H-L, anti-TACI L-H, or anti-BCMA. Cells were incubated with fluorescent soluble TACI protein at various concentrations, after which fluorescence of the cells was measured using flow cytometry, represented as percentage of cells positive for TACI (FIG. 25A) or as median fluorescence intensity (MFI) relative to signal measured in untransduced cells (FIG. 25B).
(§2) To evaluate the expression, binding efficacy, and binding specificity of anti-TACI CARs, normal donor T cells were transduced with anti-TACI H-L, anti-TACI L-H, or anti-BCMA and transduction efficiency was evaluated by measuring the percentage of each T cell population positive for mCherry expression by flow cytometry. […] To compare binding efficiency and specificity of different CARs, T cells expressing each CAR construct were incubated with fluorescently-labeled soluble TACI and analyzed by flow cytometry.

[2] = molecular target: T1, soluble TACI protein, fluorescently …; experiment: flow cytometry, fluorescent soluble TACI titrated 0.01 to 1000 nM on CAR T cells, percentage TACI+ (panel Soluble binding of TACI), N=3
Source text: (§3) The top two plots show binding of fluorescent BCMA and the bottom two plots show binding of fluorescent TACI to anti-TACI H-L CAR, anti-TACI L-H CAR, anti-BCMA, anti-TACI/anti-BCMA bispecific CAR, anti-BCMA/anti-TACI bispecific CAR, or untransduced T cells. The two left plots show the percentage of cells positive for BCMA or TACI. The two right plots show median fluorescence intensity for each cell population relative to untransduced cells.
(§4) To test the efficacy of bispecific CAR T cells to bind their respective antigens, T cells were either left untransduced, or transduced with anti-TACI H-L CAR, anti-TACI L-H CAR, anti-BCMA CAR, anti-TACI/anti-BCMA bispecific CAR, or anti-BCMA/anti-TACI bispecific CAR, and were tested for their binding of soluble antigens.

[3] = molecular target: T1, soluble TACI protein, fluorescently …; experiment: flow cytometry, fluorescent soluble TACI titrated 0.01 to 1000 nM on CAR T cells, MFI relative to untransduced cells (panel Amount of soluble TACI binding), N=3
Source text: as §3, §4

[4] = molecular target: T1, soluble TACI protein, fluorescently …; experiment: flow cytometry, fluorescent soluble TACI titrated 0.01 to 1000 nM on CAR T cells, percentage TACI+, N=3
Experimental: as §1, §2

soluble BCMA, labeled = molecular target: T2, soluble BCMA, labeled (UniProt Q02223 1-54, fluorescent label (not specified)); experiment: flow cytometry, labeled soluble BCMA (8 to 1000 ng) on CAR T cells, gated on live CAR T cells
T2 construct: Labeled soluble protein used to stain CAR T cells in flow cytometry; also called sBCMA; fluorescent BCMA
T2 sequence (looked up): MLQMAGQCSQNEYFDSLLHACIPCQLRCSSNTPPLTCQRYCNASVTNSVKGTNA
Experimental: The anti-BCMA, anti-TACI (H/L), and anti-TACI (L/H) CAR T cells were evaluated for their capabilities to bind to soluble TACI (sTACI), soluble BCMA (sBCMA), and soluble APRIL (sAPRIL) was determined. T cells were washed 4 times in PBS 4% BSA, and incubated with labeled protein on ice at 4° C. for 40 min. After incubation, cells were washed twice with FACS buffer and flow cytometry was performed gating on live, CAR T cells to calculate protein binding. As evident in FIG. 12A, anti-TACI (L/H) CAR T cells have higher binding efficiency to soluble TACI than anti-TACI (H/L) CAR T cells.

[5] = molecular target: T3, his-tagged recombinant TACI (UniProt O14836 1-165, limits assumed); experiment: SPR; antibody captured on anti-mouse IgG chip, his-tagged recombinant TACI as analyte
T3 construct: Analyte in the SPR assay; also called TNFRSF13B; not shown: his tag
T3 sequence (looked up): T1 sequence (looked up)
Experimental: The antibodies were analyzed by surface plasmon resonance according to the following procedure (FIG. 2). The binding of his-tagged recombinant TACI to anti-TACI antibody was captured to 120 RU (for TACI) on anti-mouse IgG.

EC50 (read off the curve) [1]: ~8 nM | EC50 (read off the curve) [2]: ~2 nM | EC50 (read off the curve) [3]: ~8 nM | EC50 (read off the curve) [4]: ~2 nM | binding result (soluble BCMA, labeled): no binding (tested: 1000 ng)
B1: Anti-TACI (H/L) CAR expressed on T cells (other)
chain: EVQLQQSGPELVKPGASVKISCKTSGYTFTESTIHWVKQSHGKSLEWIGGISPNNGGSPFNQKFKGKATLTVDKSSSTVYMELRSLSSEDSAVYYCAKWVRGAMDFWGQGTSVTVSSGGGGSGGGGSGGGGSGGGGSDIVLTQSPASLAVSLGQRATISCRASESVDYYGMSLMNWFQQKPGQPPKLVIYAASNQGSGVPARFSGSGSGTDFRLNIHPLEEDDTGMYFCQQSKEAPPTFGGGTKLEIKTTTPAPRPPTPAPTIASQPLSLRPEACRPAAGGAVHTRGLDFACDIYIWAPLAGTCGVLLLSLVITLYCKRGRKKLLYIFKQPFMRPVQTTQEEDGCSCRFPEEEEGGCELRVKFSRSADAPAYQQGQNQLYNELNLGRREEYDVLDKRRGRDPEMGGKPRRKNPQEGLYNELQKDKMAEAYSEIGMKGERRRGKGHDGLYQGLSTATKDTYDALHMQALPPR
notes: Chimeric antigen receptor: anti-TACI scFv VH-(G4S)4-VL, CD8 hinge/TM, 4-1BB, CD3zeta; The vector also expresses mCherry; also called Anti-TACI CAR (H-L)

Kd [5]: 0.861 nM | koff [5]: 0.00121 s⁻¹ | kon [5]: 1.41e+06 M⁻¹ s⁻¹
B2: anti-TACI antibody (monoclonal antibody from hybridoma, Example 1) (antibody, V domains shown)
VH: EVQLQQSGPELVKPGASVKISCKTSGYTFTESTIHWVKQSHGKSLEWIGGISPNNGGSPFNQKFKGKATLTVDKSSSTVYMELRSLSSEDSAVYYCAKWVRGAMDFWGQGTSVTVSS
VL: not shown
notes: also called anti-TACI mAb
